Values of other authors as cited in PMC3871196.

Target: Calmodulin (UniProt P0DP23)

## Peripherin/rds PerCter C-terminal domain (from UniProt P17810)
  Kd: 320 nM
